Reference: paper PMC13061601, “CLCC1 promotes hepatic neutral lipid flux and nuclear pore complex assembly” (Nature, 2026)

Target: the molecule itself
Assay: migration on a gel, blot (Supplementary Fig. 8c); without reducing agent; sample and gel conditions not shown

B1: CLCC1 (natural protein, human, UniProt Q96S66 19-551, looked up)
chain: HDDDWIDPTDMLNYDAASGTMRKSQAKYGISGEKDVSPDLSCADEISECYHKLDSLTYKIDECEKKKREDYESQSNPVFRRYLNKILIEAGKLGLPDENKGDMHYDAEIILKRETLLEIQKFLNGEDWKPGALDDALSDILINFKFHDFETWKWRFEDSFGVDPYNVLMVLLCLLCIVVLVATELWTYVRWYTQLRRVLIISFLFSLGWNWMYLYKLAFAQHQAEVAKMEPLNNVCAKKMDWTGSIWEWFRSSWTYKDDPCQKYYELLLVNPIWLVPPTKALAVTFTTFVTEPLKHIGKGTGEFIKALMKEIPALLHLPVLIIMALAILSFCYGAGKSVHVLRHIGGPESEPPQALRPRDRRRQEEIDYRPDGGAGDADFHYRGQMGPTEQGPYAKTYEGRREILRERDVDLRFQTGNKSPEVLRAFDVPDAEAREHPTVVPSHKSPVLDTKPKETGGILGEGTPKESSTESSQSAKPVSGQDTSGNTEGSPAAEKAQLKSEAAGSPDQGSTYSPARGVAGPRGQDPVSSPCG
notes: CLCC1, human
  stoichiometry N: 2
